In experiment [1] the target is T1, human CD3ed-Fc (biotin-labeled human CD3 epsilon and human CD3 delta linked to a human antibody constant … (human, biotin-labeled (BirA co-expression); site not stated).
T1 construct: also called CD3 epsilon delta heterodimer fused with the antibody constant region
T1 chain 1: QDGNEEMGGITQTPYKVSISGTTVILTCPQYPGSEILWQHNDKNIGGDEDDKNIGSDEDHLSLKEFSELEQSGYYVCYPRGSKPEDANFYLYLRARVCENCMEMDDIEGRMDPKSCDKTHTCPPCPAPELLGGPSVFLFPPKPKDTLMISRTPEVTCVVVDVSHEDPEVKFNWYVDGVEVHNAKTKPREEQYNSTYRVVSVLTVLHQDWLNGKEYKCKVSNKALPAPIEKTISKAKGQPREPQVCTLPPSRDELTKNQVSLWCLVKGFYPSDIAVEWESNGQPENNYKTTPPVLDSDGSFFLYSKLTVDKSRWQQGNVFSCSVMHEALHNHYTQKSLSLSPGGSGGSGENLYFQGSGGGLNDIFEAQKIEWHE
T1 chain 2: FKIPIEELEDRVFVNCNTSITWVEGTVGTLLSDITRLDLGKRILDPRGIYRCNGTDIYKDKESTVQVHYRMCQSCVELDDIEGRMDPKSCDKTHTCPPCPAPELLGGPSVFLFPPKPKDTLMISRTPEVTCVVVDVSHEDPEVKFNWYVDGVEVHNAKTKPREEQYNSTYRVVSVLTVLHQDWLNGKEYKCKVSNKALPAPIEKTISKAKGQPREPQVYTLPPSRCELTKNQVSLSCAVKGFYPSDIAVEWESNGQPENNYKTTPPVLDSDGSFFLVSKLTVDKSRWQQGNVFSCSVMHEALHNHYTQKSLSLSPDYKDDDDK
Put plainly: BLI (Octet RED) as in Example 3.

Experiment [2] deals with T2, biotinylated plexin A1 (human, UniProt Q9UIW2 27-1253, biotin on the AviTag sequence (SEQ ID NO: 36)).
T2 construct: also called biotin-labeled human plexin A1; human plexin A1
T2 sequence (Q9UIW2 other isoform, or with tags, fused parts or gaps limits assumed): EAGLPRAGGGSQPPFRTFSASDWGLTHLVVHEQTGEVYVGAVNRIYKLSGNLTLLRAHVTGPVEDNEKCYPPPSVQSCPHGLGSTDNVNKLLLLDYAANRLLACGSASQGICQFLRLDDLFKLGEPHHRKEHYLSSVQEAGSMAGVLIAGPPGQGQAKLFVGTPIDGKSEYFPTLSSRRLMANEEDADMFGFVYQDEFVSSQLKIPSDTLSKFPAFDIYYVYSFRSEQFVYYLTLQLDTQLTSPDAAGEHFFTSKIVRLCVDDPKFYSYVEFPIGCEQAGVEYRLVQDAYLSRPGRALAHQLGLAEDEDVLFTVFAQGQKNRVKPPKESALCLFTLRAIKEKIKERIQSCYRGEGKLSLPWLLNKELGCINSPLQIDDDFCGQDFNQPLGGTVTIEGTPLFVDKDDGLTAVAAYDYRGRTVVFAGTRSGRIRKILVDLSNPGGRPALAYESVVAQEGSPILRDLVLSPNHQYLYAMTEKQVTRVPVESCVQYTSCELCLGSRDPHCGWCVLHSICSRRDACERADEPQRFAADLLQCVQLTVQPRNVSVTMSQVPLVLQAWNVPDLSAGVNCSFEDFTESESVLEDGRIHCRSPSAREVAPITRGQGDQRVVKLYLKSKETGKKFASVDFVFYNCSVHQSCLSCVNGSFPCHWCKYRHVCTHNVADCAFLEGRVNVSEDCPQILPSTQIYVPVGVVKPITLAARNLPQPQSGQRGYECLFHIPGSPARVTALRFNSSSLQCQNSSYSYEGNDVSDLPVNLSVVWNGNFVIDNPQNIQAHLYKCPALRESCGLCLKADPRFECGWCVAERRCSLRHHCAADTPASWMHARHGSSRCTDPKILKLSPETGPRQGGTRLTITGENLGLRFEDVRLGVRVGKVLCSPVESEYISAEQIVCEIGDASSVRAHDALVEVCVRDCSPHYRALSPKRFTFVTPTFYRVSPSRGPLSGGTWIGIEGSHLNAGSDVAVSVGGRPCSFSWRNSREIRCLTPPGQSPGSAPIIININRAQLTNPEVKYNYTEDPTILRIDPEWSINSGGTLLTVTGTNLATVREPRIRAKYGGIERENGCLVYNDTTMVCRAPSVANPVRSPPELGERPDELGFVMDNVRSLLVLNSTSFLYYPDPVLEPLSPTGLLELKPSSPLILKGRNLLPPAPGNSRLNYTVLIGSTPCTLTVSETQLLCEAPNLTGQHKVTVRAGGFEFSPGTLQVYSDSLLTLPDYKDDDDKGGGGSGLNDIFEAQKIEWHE
Put plainly: BLI (Octet) as in Example 3. In general terms: In BLI a coated tip is dipped into the sample, and binding shifts an interference pattern.

B1: bC3edL1R1N161H01-G1mISHI01/VK1-39-k0MT (before protease treatment) (antibody, human IgG1, kappa, V domains shown)
VH: QVQLVESGGGLVQPGGSLRLSCAASGFPFDNYVMSWVRQAPGKGLEWISAISWNGGSTYYAESMKGRFTISRDNAKSTLYLQMNSLKSEDTAVYYCAKEPRVYYSGSPDYWGQGTQVTVSG
VL: DIQMTQSPSSLSASVGDRVTITCRASQSISSYLNWYQQKPGKAPKLLIYAASSLQSGVPSRFSGSGSGTDFTLTISSLQPEDFATYYCLQFDSYPLTFGGGTKVEIKR
notes: Uncleaved
For the molecule B1, the binding result in experiment [1] is on record as “no binding”.

B2: PX02-R4_017-G1mISHI01/VK1-39-k0MT (before protease treatment) (antibody, human IgG1, kappa, V domains shown)
VH: QVQLVESGGGLVQPGGSLRLSCTASGISFSISTMGWYRQAPGKQRELVATITSGGEAYYANSMKDRFTISRDNAENTVYLQMNRLKPEDSAVYYCNTKFPWSTDWNARGQGTQVTVSG
VL: DIQMTQSPSSLSASVGDRVTITCRASQSISSYLNWYQQKPGKAPKLLIYAASSLQSGVPSRFSGSGSGTDFTLTISSLQPEDFATYYCLQFDSYPLTFGGGTKVEIKR
notes: Uncleaved
As to B2, the binding result in experiment [2] is “no binding”.

B3: bC3edL1R1N164H01-G1mISHI01/VK1-39-k0MT (before protease treatment) (antibody, human IgG1, kappa, V domains shown)
VH: QVQLVESGGGLVQPGGSLRLSCAASGFTFDVYGMSWVRHSPGKGLEWVSTINWNGGSTYYAESMKGRFTISRDNAKNTVYLQMNSLKPEDTAVYYCAKFAPWDGDMEWGQGTQVTVSG
VL: DIQMTQSPSSLSASVGDRVTITCRASQSISSYLNWYQQKPGKAPKLLIYAASSLQSGVPSRFSGSGSGTDFTLTISSLQPEDFATYYCLQFDSYPLTFGGGTKVEIKR
notes: Uncleaved
On to B3, for which, in experiment [1], the binding result was “no binding”.

B4: PX03-R4_009-G1mISHI01/VK1-39-k0MT (before protease treatment) (antibody, human IgG1, kappa, V domains shown)
VH: QLQLVESGGGLVQPGGSLRLSCTASGISFSISTMGWYRQAPGKQRELVATIASGGEAYYANSVKGRFTISREYAENTVFLQMNRLKPEDSAVYYCNTKFPWSTDWNARGQGTQVTVSG
VL: DIQMTQSPSSLSASVGDRVTITCRASQSISSYLNWYQQKPGKAPKLLIYAASSLQSGVPSRFSGSGSGTDFTLTISSLQPEDFATYYCLQFDSYPLTFGGGTKVEIKR
notes: Uncleaved
In the case of B4, the binding result in experiment [2] is given as “no binding”.

B5: PX03-R2_006-G1mISHI01/VK1-39-k0MT (before protease treatment) (antibody, human IgG1, kappa, V domains shown)
VH: QLQLVESGGGLVQPGGSLRLSCTASGISFSISTMGWYRQAPGKQRELVATIASGGEAYYANSVKGRFTISRDNAENTVYLQMNRLKPEDSAVYYCNTKFPWSTDWNARGQGTQVTVSG
VL: DIQMTQSPSSLSASVGDRVTITCRASQSISSYLNWYQQKPGKAPKLLIYAASSLQSGVPSRFSGSGSGTDFTLTISSLQPEDFATYYCLQFDSYPLTFGGGTKVEIKR
notes: Uncleaved
Regarding B5, the binding result in experiment [2] is recorded as “no binding”.

The record behind these values is patent US20210155701A1 (Chugai, published 2021).
